Here are results for 1 molecule from article PMC11541587 (Nature Communications, 2024).

The assay addresses HA-AMFR (UniProt Q9UKV5 1-643). Description: co-IP.

Sequence of HA-AMFR (Q9UKV5 whole entry): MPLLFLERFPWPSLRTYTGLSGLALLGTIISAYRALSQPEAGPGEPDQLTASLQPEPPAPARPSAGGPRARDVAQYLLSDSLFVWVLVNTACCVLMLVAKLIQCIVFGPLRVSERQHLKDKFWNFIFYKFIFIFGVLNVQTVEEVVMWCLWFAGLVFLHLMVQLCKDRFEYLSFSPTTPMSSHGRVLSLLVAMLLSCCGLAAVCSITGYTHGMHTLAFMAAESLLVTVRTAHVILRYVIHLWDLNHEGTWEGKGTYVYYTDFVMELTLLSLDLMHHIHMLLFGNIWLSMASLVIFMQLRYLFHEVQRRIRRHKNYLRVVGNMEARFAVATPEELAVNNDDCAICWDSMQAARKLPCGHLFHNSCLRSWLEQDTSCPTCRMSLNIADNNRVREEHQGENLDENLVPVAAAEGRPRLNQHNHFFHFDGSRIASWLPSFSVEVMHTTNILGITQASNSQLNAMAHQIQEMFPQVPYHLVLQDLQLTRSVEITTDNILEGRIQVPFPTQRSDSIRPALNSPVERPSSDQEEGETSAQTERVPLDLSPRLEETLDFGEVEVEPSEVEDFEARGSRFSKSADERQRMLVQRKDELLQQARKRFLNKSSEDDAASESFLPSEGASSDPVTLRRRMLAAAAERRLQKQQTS

B1: FAM134B (construct and tag not told for these supplementary panels) (natural protein)
chain: MASPAPPEHAEEGCPAPAAEEQAPPSPPPPQASPAERQQQEEEAQEAGAAEGAGLQVEEAAGRAAAAVTWLLGEPVLWLGCRADELLSWKRPLRSLLGFVAANLLFWFLALTPWRVYHLISVMILGRVIMQIIKDMVLSRTRGAQLWRSLSESWEVINSKPDERPRLSHCIAESWMNFSIFLQEMSLFKQQSPGKFCLLVCSVCTFFTILGSYIPGVILSYLLLLCAFLCPLFKCNDIGQKIYSKIKSVLLKLDFGIGEYINQKKRERSEADKEKSHKDDSELDFSALCPKISLTVAAKELSVSDTDVSEVSWTDNGTFNLSEGYTPQTDTSDDLDRPSEEVFSRDLSDFPSLENGMGTNDEDELSLGLPTELKRKKEQLDSGHRPSKETQSAAGLTLPLNSDQTFHLMSNLAGDVITAAVTAAIKDQLEGVQQALSQAAPIPEEDTDTEEGDDFELLDQSELDQIESELGLTQDQEAEAQQNKKSSGFLSNLLGGH
With B1, the binding result is recorded as “binds”.
